According to IntAct's records for PubMed 16461343:

B1: Tyrosine-protein phosphatase non-receptor type 22 (Homo sapiens), Q9Y2R2 (parent)
chain: MDQREILQKFLDEAQSKKITKEEFANEFLKLKRQSTKYKADKTYPTTVAEKPKNIKKNRYKDILPYDYSRVELSLITSDEDSSYINANFIKGVYGPKAYIATQGPLSTTLLDFWRMIWEYSVLIIVMACMEYEMGKKKCERYWAEPGEMQLEFGPFSVSCEAEKRKSDYIIRTLKVKFNSETRTIYQFHYKNWPDHDVPSSIDPILELIWDVRCYQEDDSVPICIHCSAGCGRTGVICAIDYTWMLLKDGIIPENFSVFSLIREMRTQRPSLVQTQEQYELVYNAVLELFKRQMDVIRDKHSGTESQAKHCIPEKNHTLQADSYSPNLPKSTTKAAKMMNQQRTKMEIKESSSFDFRTSEISAKEELVLHPAKSSTSFDFLELNYSFDKNADTTMKWQTKAFPIVGEPLQKHQSLDLGSLLFEGCSNSKPVNAAGRYFNSKVPITRTKSTPFELIQQRETKEVDSKENFSYLESQPHDSCFVEMQAQKVMHVSSAELNYSLPYDSKHQIRNASNVKHHDSSALGVYSYIPLVENPYFSSWPPSGTSSKMSLDLPEKQDGTVFPSSLLPTSSTSLFSYYNSHDSLSLNSPTNISSLLNQESAVLATAPRIDDEIPPPLPVRTPESFIVVEEAGEFSPNVPKSLSSAVKVKIGTSLEWGGTSEPKKFDDSVILRPSKSVKLRSPKSELHQDRSSPPPPLPERTLESFFLADEDCMQAQSIETYSTSYPDTMENSTSSKQTLKTPGKSFTRSKSLKILRNMKKSICNSCPPNKPAESVQSNNSSSFLNFGFANRFSKPKGPRNPPPTWNI

What was measured:
[1] = variants of: B1; conditions: with lck_human LCK
[2] = variants of: B1; conditions: with zap70_human ZAP70, P43403
Sequence of zap70_human ZAP70, P43403 (P43403 whole entry): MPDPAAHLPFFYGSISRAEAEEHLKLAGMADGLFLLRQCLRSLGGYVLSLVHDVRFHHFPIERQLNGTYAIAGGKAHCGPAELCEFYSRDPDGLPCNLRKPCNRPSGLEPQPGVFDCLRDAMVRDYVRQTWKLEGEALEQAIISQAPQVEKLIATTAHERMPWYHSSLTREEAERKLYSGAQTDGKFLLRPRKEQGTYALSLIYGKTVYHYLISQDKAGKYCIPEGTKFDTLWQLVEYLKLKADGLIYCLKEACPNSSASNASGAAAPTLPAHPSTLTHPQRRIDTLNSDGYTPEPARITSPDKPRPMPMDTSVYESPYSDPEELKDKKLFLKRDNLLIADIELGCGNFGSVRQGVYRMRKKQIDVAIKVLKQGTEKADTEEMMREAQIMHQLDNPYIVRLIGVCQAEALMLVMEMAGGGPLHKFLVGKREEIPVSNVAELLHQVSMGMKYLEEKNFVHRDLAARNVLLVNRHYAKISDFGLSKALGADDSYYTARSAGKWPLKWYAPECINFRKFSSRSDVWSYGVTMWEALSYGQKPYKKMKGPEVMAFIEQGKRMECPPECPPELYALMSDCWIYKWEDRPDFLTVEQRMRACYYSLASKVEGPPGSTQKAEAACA

[3] = variants of: B1; conditions: with cd3z_human CD247, P20963
Sequence of cd3z_human CD247, P20963 (P20963 whole entry): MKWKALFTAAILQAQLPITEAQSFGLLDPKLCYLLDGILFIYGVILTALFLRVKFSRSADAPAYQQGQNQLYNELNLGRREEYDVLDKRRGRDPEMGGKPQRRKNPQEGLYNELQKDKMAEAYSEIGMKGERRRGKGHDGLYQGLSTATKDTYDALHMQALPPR

Measured: effect of a mutation on the interaction

D195A
increasing interaction: all assays above

C227S
increasing interaction: all assays above
